In US7329737 (DYAX, dated 2008):

Target: T1, hK1 (human tissue kallikrein 1), recombinant (human, UniProt P06870 25-262)
T1 construct: Expressed in P. pastoris from KLK1 cDNA and purified; enzymatically active; also called KLK1; Recombinant (Pichia) Kallikrein
Assay: SPR

Row | Kd [nM] | koff [s⁻¹] | kon [M⁻¹ s⁻¹] | Binder
1 | 1.04 | 0.000325 | 311000 | M0131-D01 (Fab, V domains shown) VH: EVQLLESGGGLVQPGGSLRLSCAASGFTFSHYNMNWVRQAPGKGLEWVSVIYPSGGQTHYADSVKGRFTISRDNSKNTLYLQMNSLRAEDTAVYYCARRGIWHSFDIWGQGTMVTVSS VL: DIQMTQSPGTLSLSPGERASLSCRASQSVSSNYLSWYQQKPGQAPRLLIYGTSNRASGIPVRFSGSGSGTDFTLTISRLEPEDFAVYYCQQYGGAPLFIFGPGTRVDIKR
2 | 0.46 | 0.000117 | 255000 | M0131-B05 (Fab, V domains shown) VH: EVQLLESGGGLVQPGGSLRLSCAASGFTFSHYVMSWVRQAPGKGLEWVSYIYPSGGKTHYADSVKGRFTISRDNSKNTLYLQMNSLRAEDTAVYYCARVGVWYGMDVWGQGTTVTVSS VL: AQYELTQPASVSGSPGQSITISCTGTSSDIGAYNYVSWYQQHPGKAPKLMIYDVSNRPSGVSNRFSGSKSGNTASLTISGLQAEDEADYYCSSYRSSSLMFGGGTKLTVLG
3 | 1.3 | 0.000444 | 342000 | M0132-C08 (Fab, V domains shown) VH: EVQLLESGGGLVQPGGSLRLSCAASGFTFSLYFMTWVRQAPGKGLEWVSSISSSGGSTKYADSVKGRFTISRDNSKNTLYLQMNSLRAEDTAVYYCARGGQWLAFDYWGQGTLVTVSS VL: not shown

Further lines, the binder ahead of its results:

Row | Binder | Kd [nM] | koff [s⁻¹] | kon [M⁻¹ s⁻¹]
4 | M0103-H07 (Fab, V domains shown) VH: EVQLLESGGGLVQPGGSLRLSCAASGFTFSHYGMYWVRQAPGKGLEWVSSIYPSGGWTNYADSVKGRFTISRDNSKNTLYLQMNSLRAEDTAVYYCARRGSWGAFDIWGQGTMVTVSS VL: DIQMTQSPSSLSASVGDRVAITCRASQSIDTYLNWYQQKPGKAPKLLIYAASKLEDGVPSRFSGSGTGTDFTLTIRSLQPEDFATYYCQPYNTYPITFGQGTRLEIKR | 85.7 | 0.0086 | 100000
5 | M0116-A08 (Fab, V domains shown) VH: EVQLLESGGGLVQPGGSLRLSCAASGFTFSYYMMGWVRQAPGKGLEWVSSIYTSGGYTKYADSVKGRFTISRDNSKNTLYLQMNSLRAEDTAVYYCARASIYYGMDVWGQGTTVTVSS VL: DIQMTQSPGTLSLSPGERATLSCRASQSVSNSYLAWYQQRPGQAPRLLIYGASSRATGIPDRFSGSGSGTEFTLTISRLEPEDFAVYYCQQFGSSTGYTFGQGTKLELKR | 88.3 | 0.00994 | 113000
6 | M0124-C04 (Fab, V domains shown) VH: EVQLLESGGGLVQPGGSLRLSCAASGFTFSWYLMGWVRQAPGKGLEWVSVIGPSGGLTKYADSVKGRFTISRDNSKNTLYLQMNSLRAEDTAVYYCARFRGYYGMDVWGQGTTVTVSS VL: not shown | 372 | 0.286 | 768000
7 | M0106-D06 (Fab, V domains shown) VH: EVQLLESGGGLVQPGGSLRLSCAASGFTFSYYLMGWVRQAPGKGLEWVSSIGPSGGTTKYADSVKGRFTISRDNSKNTLYLQMNSLRAEDTAVYYCARRGLGAAFDYWGQGTLVTVSS VL: DIQMTQSPSSVSASVGDRVTITCRASQGISSWLAWYQQKPGKAPKLLIYAASSLQSGVPSRFSGSGSGTDFTLTISSLQPEDFATYYCQQANSFPYTFGQGTKLEIKR | 123 | 0.019 | 154000
8 | M0110-D06 (Fab, V domains shown) VH: EVQLLESGGGLVQPGGSLRLSCAASGFTFSWYRMAWVRQAPGKGLEWVSYIGPSGGSTSYADSVKGRFTISRDNSKNTLYLQMNSLRAEDTATYYCARVGTFYGMDVWGQGTTVTVSS VL: DIQMTQSPSTLSASLGDRVIITCRASQGIRSWLAWYQQKPGKAPKLLIYAASSLQSGVPSRFSGSGSGTDFTLTISSLQPEDFATYYCQQSYSTPWTFGQGTKVEIKR | 232 | 0.0175 | 75600
9 | M0113-D05 (Fab, V domains shown) VH: EVQLLESGGGLVQPGGSLRLSCAASGFTFSHYIMMWVRQAPGKGLEWVSSIYPSGGSTIYADSVKGRFTISRDNSKNTLYLQMNSLRAEDTAVYYCASATEGYYYGMDVWGQGTTVTVSS VL: not shown | 152 | 0.00214 | 14100
